From patent publication US20250049939A1 (TUBULIS, published 2025)

Key:
[1] = molecular target: T1, recombinant human FLT3 protein (human, UniProt P36888 27-541); assay: ELISA with recombinant human FLT3 coated to the plate (results of FIG. 13 summarized)
T1 construct: also called recombinant FLT3 protein; human recombinant FLT3 protein (10445-H08H, Sino Biological)
T1 sequence: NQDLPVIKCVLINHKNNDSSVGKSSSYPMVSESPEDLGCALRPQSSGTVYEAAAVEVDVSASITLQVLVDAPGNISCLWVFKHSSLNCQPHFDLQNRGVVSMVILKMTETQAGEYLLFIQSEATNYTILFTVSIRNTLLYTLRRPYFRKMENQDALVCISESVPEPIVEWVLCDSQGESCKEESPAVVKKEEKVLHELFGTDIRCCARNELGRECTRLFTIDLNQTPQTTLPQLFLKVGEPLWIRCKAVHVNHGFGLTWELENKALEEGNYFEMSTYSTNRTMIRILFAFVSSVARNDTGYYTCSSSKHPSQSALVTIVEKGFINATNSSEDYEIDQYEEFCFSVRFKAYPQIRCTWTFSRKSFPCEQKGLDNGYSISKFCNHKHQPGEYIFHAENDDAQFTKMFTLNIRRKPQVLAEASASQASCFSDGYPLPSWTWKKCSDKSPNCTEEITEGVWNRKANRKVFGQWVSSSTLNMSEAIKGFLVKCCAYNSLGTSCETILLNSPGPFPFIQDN
Method: Maxisorp plates were coated with human recombinant FLT3 protein (10445-H08H, Sino Biological). […] For detection, Attophos Fluorescent Substrate System (S1000, Promega) was applied. The fluorescence was read with excitation of 405 nm and emission at 500-550 nm. The calculation of the dissociation constant KD was performed using GraphPad Prism version 9.4.0.
The 12 clones were subsequently analysed in ELISA assays (FIG. 13). Therefore, recombinant human FLT3 was coated on plates and incubated with the antibody candidates. […] Mean±s.d. of n=3 biological replicates.

[2] = molecular target: T2, human wildtype FLT3 expressed on Ba/F3 cells (human, UniProt P36888 27-993); assay: flow cytometry, cell surface binding to Ba/F3 cells expressing human FLT3 (results of FIG. 14 summarized)
T2 construct: also called hFLT3 wt; Ba/F3-FLT3
T2 sequence: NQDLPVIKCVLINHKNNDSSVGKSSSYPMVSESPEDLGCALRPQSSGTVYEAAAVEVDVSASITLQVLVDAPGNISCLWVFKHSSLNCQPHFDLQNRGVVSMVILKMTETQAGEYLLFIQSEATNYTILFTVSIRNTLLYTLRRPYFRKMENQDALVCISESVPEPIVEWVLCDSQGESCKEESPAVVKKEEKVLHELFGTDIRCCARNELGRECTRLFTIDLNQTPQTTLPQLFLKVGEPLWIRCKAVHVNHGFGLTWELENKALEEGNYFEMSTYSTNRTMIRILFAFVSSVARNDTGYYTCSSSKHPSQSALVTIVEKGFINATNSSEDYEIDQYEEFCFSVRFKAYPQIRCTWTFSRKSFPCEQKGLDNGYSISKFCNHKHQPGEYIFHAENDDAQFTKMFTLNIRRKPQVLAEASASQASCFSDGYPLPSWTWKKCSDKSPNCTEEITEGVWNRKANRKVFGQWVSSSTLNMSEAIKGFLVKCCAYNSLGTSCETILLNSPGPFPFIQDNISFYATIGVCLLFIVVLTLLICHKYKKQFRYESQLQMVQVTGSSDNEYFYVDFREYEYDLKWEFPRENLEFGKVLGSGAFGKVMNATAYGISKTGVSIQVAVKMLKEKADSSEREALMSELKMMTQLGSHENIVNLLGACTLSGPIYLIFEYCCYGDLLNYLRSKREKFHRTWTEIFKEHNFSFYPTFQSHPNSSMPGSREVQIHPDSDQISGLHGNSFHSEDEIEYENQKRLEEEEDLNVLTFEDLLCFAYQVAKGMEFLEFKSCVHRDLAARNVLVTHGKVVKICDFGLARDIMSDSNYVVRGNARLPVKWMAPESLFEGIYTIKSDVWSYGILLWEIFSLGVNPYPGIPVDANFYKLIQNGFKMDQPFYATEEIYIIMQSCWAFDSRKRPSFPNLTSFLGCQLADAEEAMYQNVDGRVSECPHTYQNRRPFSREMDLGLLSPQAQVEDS

[3] = molecular target: T3, human CD64 (high affinity Fc receptor, FCGR1) on cells (human, UniProt P12314 16-374); assay: flow cytometry, cell surface binding to Ba/F3-pMIY cells expressing CD64, specific MFI, mean ± s.d. of n=3
T3 construct: whole, on cells; also called hCD64; human FCGR1

[4] = molecular target: T4, VEGFR-2 on Ba/F3 cells (UniProt P35968 20-1356, limits assumed); assay: flow cytometry, cell surface binding to Ba/F3 pMIY cells expressing VEGFR, MFI ratio normalized to IgG1, mean ± s.d. of n=3
T4 construct: whole, on cells

[5] = molecular target: T5, c-KIT on Ba/F3 cells (UniProt P10721 26-976, limits assumed); assay: flow cytometry, cell surface binding to Ba/F3 pMIY cells expressing c-KIT, MFI ratio normalized to IgG1, mean ± s.d. of n=3
T5 construct: whole, on cells

[6] = molecular target: T6, CSF1R on Ba/F3 cells (UniProt P07333 20-972, limits assumed); assay: flow cytometry, cell surface binding to Ba/F3 pMIY cells expressing CSF-1R, MFI ratio normalized to IgG1, mean ± s.d. of n=3
T6 construct: whole, on cells
T6 sequence (P07333 20-972 limits assumed): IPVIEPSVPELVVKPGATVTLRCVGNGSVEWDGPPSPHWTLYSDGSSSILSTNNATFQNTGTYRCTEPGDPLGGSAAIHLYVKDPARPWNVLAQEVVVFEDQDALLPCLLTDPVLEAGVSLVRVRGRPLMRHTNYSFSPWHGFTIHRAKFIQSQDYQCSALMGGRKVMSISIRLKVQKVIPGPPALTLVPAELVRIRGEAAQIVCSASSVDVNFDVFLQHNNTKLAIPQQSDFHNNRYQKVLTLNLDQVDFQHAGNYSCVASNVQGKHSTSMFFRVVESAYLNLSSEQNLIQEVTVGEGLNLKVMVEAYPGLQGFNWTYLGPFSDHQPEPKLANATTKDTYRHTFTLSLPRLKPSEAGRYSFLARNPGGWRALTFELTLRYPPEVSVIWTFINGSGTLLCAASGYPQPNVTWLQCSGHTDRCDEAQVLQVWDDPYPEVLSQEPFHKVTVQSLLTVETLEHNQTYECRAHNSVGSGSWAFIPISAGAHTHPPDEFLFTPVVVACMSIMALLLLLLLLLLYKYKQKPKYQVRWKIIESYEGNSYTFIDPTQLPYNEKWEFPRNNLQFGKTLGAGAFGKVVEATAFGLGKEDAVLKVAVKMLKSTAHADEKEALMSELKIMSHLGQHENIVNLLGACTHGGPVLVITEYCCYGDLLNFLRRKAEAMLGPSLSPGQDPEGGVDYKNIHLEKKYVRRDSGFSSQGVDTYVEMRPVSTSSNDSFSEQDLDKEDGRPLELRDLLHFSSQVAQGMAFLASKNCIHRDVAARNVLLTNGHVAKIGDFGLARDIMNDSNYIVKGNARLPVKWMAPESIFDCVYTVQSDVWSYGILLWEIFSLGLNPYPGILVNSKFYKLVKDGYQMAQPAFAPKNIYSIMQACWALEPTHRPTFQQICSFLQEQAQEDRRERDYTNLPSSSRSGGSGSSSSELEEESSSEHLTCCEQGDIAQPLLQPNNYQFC

T5 sequence (P10721 26-976 limits assumed): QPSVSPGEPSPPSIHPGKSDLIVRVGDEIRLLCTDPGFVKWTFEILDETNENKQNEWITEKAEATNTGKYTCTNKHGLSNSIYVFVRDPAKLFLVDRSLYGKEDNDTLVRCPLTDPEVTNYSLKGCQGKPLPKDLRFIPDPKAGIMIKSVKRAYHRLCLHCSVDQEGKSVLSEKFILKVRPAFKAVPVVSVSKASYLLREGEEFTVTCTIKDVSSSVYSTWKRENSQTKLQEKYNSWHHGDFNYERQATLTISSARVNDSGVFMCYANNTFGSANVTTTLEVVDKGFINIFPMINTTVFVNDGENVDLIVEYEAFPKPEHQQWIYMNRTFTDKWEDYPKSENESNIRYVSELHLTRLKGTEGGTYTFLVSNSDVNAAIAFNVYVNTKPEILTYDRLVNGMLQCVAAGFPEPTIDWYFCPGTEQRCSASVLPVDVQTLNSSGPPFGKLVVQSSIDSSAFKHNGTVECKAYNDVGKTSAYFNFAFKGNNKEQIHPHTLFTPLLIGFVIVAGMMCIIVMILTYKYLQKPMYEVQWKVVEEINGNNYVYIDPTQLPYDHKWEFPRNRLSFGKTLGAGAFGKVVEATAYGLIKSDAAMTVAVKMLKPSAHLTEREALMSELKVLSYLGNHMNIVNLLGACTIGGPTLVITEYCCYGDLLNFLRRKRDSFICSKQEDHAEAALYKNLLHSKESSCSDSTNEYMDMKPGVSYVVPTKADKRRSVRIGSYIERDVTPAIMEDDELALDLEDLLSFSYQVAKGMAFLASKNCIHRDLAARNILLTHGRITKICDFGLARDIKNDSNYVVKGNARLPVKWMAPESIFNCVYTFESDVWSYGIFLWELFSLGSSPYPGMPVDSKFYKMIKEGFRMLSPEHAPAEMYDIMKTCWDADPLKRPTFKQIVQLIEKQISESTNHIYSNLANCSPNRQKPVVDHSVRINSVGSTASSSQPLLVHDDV
T4 sequence (P35968 20-1356 limits assumed): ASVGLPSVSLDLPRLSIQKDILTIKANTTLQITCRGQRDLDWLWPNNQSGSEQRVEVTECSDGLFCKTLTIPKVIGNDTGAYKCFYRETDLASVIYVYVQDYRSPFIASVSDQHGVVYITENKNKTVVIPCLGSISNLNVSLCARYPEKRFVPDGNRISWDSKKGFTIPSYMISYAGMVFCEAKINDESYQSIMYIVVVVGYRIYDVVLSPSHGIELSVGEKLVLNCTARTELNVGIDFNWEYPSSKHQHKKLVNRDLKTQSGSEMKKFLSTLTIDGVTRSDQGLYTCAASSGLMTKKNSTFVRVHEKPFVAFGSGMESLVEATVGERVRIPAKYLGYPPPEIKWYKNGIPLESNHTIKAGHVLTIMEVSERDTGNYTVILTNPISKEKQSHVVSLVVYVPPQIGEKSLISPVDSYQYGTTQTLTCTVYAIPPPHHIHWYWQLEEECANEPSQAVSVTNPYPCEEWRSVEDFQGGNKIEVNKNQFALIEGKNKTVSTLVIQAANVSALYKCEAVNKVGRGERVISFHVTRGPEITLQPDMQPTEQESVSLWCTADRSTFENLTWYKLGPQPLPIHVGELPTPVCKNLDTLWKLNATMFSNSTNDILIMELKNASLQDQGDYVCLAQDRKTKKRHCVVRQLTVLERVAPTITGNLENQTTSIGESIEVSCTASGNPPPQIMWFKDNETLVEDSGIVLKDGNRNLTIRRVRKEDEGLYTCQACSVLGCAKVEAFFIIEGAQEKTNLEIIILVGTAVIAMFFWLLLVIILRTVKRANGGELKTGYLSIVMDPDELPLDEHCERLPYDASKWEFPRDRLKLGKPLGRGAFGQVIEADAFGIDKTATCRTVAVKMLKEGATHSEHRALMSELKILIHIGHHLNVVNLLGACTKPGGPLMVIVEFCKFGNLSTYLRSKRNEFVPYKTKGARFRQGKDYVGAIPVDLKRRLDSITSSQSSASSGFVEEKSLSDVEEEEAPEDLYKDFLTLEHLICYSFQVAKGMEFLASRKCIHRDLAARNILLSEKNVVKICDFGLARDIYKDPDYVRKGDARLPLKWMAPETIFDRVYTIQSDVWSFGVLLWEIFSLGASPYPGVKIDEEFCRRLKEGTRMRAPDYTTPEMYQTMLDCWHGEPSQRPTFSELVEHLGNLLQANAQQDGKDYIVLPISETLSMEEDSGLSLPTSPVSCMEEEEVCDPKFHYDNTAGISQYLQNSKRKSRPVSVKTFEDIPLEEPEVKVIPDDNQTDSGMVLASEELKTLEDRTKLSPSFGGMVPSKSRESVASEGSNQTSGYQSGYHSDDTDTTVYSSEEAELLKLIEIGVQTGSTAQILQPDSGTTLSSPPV
T3 sequence (P12314 16-374): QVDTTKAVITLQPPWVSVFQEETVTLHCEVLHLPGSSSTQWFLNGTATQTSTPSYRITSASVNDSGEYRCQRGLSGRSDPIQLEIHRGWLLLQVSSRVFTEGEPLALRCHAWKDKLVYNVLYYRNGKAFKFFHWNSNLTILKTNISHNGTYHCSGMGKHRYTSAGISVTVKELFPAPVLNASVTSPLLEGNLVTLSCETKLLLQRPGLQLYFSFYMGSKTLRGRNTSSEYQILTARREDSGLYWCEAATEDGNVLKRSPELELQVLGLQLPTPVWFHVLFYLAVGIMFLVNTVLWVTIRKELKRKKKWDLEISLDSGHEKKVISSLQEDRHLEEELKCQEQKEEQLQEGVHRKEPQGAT

Kd [1]: 0.0113 µg/mL
Binding to human FLT3 (MFI ratio to IgG1 control) [2]: 95.3
binding result [3]: binds
binding result [4]: no binding
binding result [5]: no binding
binding result [6]: no binding
B1: Humanized clone 3 of 20D9 (VH3 + VK1) (antibody, human IgG1, kappa)
heavy: not shown
light: DIQMTQSPSVLSASVGDRVTINCRASQNINKELNWYQQKLGEAPKLLIYNTNNLQSGVPSRFSGSGSGTDYTLTISSLQPEDVATYFCFQHKSWPLTFGSGTKLEIKRTVAAPSVFIFPPSDEQLKSGTASVVCLLNNFYPREAKVQWKVDNALQSGNSQESVTEQDSKDSTYSLSSTLTLSKADYEKHKVYACEVTHQGLSSPVTKSFNRGEC
notes: also called candidate #3; #3 mab
